Drawing on patent US20240270821A1, “GIP/GLP1/GCG TRI-RECEPTOR AGONISTS AND USES THEREOF” (priority 2023, published 2024), this text covers Relative cAMP EC50 for 16 molecules.

What all share (test): cell-based or functional assay
Experiment [1] deals with T1, human GIP receptor (human) (UniProt P48546).
T1 sequence (looked up): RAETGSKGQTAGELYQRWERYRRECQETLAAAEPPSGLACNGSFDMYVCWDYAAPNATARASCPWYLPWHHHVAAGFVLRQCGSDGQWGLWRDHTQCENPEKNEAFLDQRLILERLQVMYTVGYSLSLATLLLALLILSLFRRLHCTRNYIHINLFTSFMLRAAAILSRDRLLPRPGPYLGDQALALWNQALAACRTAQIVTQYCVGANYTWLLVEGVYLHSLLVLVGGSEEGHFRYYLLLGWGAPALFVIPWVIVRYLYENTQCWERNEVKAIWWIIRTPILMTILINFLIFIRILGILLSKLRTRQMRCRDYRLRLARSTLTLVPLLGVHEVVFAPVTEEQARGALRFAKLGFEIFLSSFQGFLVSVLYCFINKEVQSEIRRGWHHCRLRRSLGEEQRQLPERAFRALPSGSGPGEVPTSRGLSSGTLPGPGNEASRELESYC

Experiment [2] has as its target human glucagon receptor (human) (UniProt P47871).
The target of the next experiment is hGLP-1R (Homo sapiens, UniProt P43220).
Chain of hGLP-1R (P43220 24-463): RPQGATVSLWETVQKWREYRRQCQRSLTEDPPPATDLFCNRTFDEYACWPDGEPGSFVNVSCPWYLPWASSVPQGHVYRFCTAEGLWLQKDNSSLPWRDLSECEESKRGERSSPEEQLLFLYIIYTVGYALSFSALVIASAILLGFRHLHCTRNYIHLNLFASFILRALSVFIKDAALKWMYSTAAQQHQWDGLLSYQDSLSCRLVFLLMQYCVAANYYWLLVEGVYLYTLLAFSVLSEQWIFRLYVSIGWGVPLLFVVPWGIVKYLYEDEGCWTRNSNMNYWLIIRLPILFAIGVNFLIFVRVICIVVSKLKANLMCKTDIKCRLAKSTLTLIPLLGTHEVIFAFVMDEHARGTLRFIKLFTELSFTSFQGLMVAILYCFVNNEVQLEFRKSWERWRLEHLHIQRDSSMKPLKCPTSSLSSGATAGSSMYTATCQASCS

Starred links: 1 amine or outer side, 2 acyl side, 3 side chain; linkers in the order of their positions; H or OH if unused. Non-standard residues stand in square brackets, D forms with d. Groups on a side chain read outwards from the residue. No end group written: not given here. *: point of attachment. C18 diacid = O=C(O)CCCCCCCCCCCCCCCCC(=O)*; γGlu = O=C(O)[C@H](CCC(=O)[*:2])N[*:1]; 4Pal = N[C@@H](Cc1ccncc1)C(=O)O; αMeL = CC(C)C[C@](C)(N)C(=O)O; Dab = NCC[C@H](N)C(=O)O; AEEA = NCCOCCOCC(=O)O; Aib = CC(C)(N)C(=O)O

Chain of human glucagon receptor (human) (P47871 26-477): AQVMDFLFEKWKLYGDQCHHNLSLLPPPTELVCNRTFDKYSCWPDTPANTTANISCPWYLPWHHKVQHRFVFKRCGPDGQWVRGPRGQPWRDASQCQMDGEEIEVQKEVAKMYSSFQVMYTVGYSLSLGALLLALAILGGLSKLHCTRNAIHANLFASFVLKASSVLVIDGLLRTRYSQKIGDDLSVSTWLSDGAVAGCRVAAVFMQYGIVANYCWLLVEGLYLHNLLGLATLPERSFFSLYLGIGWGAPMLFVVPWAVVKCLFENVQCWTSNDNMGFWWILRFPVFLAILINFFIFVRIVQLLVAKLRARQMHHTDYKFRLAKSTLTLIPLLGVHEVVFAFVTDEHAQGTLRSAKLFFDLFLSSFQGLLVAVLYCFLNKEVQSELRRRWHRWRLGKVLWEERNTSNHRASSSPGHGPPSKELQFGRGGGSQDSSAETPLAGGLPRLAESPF

B1: Example 946 (peptide)
chain: YXQGTFTSDXSQXLDXKAQXAFIEXLLEGGPSSGAPPPSGSEE
modifications: synthetic construct; SITE 2: note = 2-Aminoisobutyric Acid; SITE 10: note = 3-(4-Pyridyl)-L-alanine; SITE 13: note = alpha-methyl-leucine; SITE 16: note = L-ornithine; SITE 17: note = Lysine is chemically modified through conjugation of the epsilon-amino group of the Lysine side chain with (gamma-Gl)
In the case of B1, the Relative cAMP EC50 in experiment [1] is 0.353 nM; in experiment [2], 16.5 nM; in the experiment with hGLP-1R, 2.05 nM.

B2: Example 944 (peptide)
chain: YXQGTFTSDXSXXLDKKAQXAFIEXLLEGGPSSGAPPPSGSEE
modifications: synthetic construct; SITE 2: note = 2-Aminoisobutyric Acid; SITE 10: note = 3-(4-Pyridyl)-L-alanine; SITE 12: note = L-ornithine; SITE 13: note = alpha-methyl-leucine; SITE 17: note = Lysine is chemically modified through conjugation of the epsilon-amino group of the Lysine side chain with (gamma-Gl)
With B2, the Relative cAMP EC50 in experiment [1] was 0.216 nM; in experiment [2], 6.16 nM; with hGLP-1R, 4.86 nM.

B3: Example 1110 (peptide)
chain: YXQGTFTSDXSQXLDXKAQXAFIEXLIAXGPSSGAPPPSGSEE
modifications: non-natural residues, acylated Lys, C-terminal amide; synthetic construct; SITE 2: note = 2-Aminoisobutyric Acid; SITE 10: note = 3-(4-Pyridyl)-L-alanine; SITE 13: note = alpha-methyl-leucine; SITE 16: note = L-ornithine; SITE 17: note = Lysine is chemically modified through conjugation of the epsilon-amino group of the Lysine side chain with (2-[2-(2-
Turning to B3, the Relative cAMP EC50 in experiment [1] worked out at 0.059 nM; in experiment [2], 5.91 nM; in the experiment with hGLP-1R it was 0.508 nM.

B4: Example 1107 (peptide)
chain: YXQGTFTSDXSQXLDXKAQXAFIEXLIAXGPSSGAPPPSGSEE
modifications: non-natural residues, lipidated Lys, C-terminal amide; synthetic construct; SITE 2: note = 2-Aminoisobutyric Acid; SITE 10: note = 3-(4-Pyridyl)-L-alanine; SITE 13: note = alpha-methyl-leucine; SITE 16: note = L-ornithine; SITE 17: note = Lysine is chemically modified through conjugation of the epsilon-amino group of the Lysine side chain with (gamma-Gl)
In the case of B4, the results for the Relative cAMP EC50 (in experiment [1]; in experiment [2]; in the experiment with hGLP-1R) were 0.0447 nM, 5.66 nM and 0.51 nM, respectively.

B5: Example 1113 (peptide)
chain: YXQGTFTSDXSQXLDXKAQXQFIEXLIEXGPSSGAPPPSGSEE
modifications: non-natural residues; lipidated Lys; C-terminal amide; synthetic construct; SITE 2: note = 2-Aminoisobutyric Acid; SITE 10: note = 3-(4-Pyridyl)-L-alanine; SITE 13: note = alpha-methyl-leucine; SITE 16: note = L-ornithine; SITE 17: note = Lysine is chemically modified through conjugation of the epsilon-amino group of the Lysine side chain with D-Glutami
In the case of B5, the Relative cAMP EC50 in experiment [1] was 0.0414 nM; in experiment [2], 14.4 nM; in the experiment with hGLP-1R, 1.12 nM.

B6: Example 1122 (peptide)
chain: YXQGTFTSDXSQXLDKKAQXAFIEXLIEXGPSSGAPPPSGSEE
modifications: Aib, 4Pal, αMeL, Me4Pal; K (γGlu)2-C18 diacid; amide; synthetic construct; SITE 2: note = 2-Aminoisobutyric Acid; SITE 10: note = 3-(4-Pyridyl)-L-alanine; SITE 13: note = alpha-methyl-leucine; SITE 17: note = Lysine is chemically modified through conjugation of the epsilon-amino group of the Lysine side chain with (gamma-Glu)2-CO-(CH2)16-CO2H; SITE 20:
With B6, the values for the Relative cAMP EC50 (in experiment [1]; in experiment [2]; in the experiment with hGLP-1R) were 0.109 nM, 10.3 nM and 5.66 nM, respectively.

B7: Example 1112 (peptide)
chain: YXQGTFTSDXSQXLDXKAQXAFIEXLIEXGPSSGAPPPSGSEE
modifications: non-natural residues; acylated Lys; C-terminal amide; synthetic construct; SITE 2: note = 2-Aminoisobutyric Acid; SITE 10: note = 3-(4-Pyridyl)-L-alanine; SITE 13: note = alpha-methyl-leucine; SITE 16: note = L-ornithine; SITE 17: note = Lysine is chemically modified through conjugation of the epsilon-amino group of the Lysine side chain with D-Glutami
Consider B7, for which the results for the Relative cAMP EC50 (in experiment [1]; in experiment [2]; in the experiment with hGLP-1R) were 0.254 nM, 10.7 nM and 0.957 nM, respectively.

B8: Example 1119 (peptide)
chain: YXQGTFTSDXSQXLDKKAQXAFIEXLIEXGPSSGAPPPSGTGE
modifications: Aib, 4Pal, αMeL, Me4Pal; acylated Lys; C-terminal amide; synthetic construct; SITE 2: note = 2-Aminoisobutyric Acid; SITE 10: note = 3-(4-Pyridyl)-L-alanine; SITE 13: note = alpha-methyl-leucine; SITE 17: note = Lysine is chemically modified through conjugation of the epsilon-amino group of the Lysine side chain with (gamma-Glu)2-CO-(CH2)16-CO2H; SITE 20:
Regarding B8, the Relative cAMP EC50 in experiment [1] is 0.0939 nM; in experiment [2], 7.61 nM; with hGLP-1R it was 3.57 nM.

B9: Example 1114 (peptide)
chain: YXQGTFTSDXSQXLDXKAQXAFIEXLIAXGPSSGAPPPSGSEE
modifications: not fully specified; Aib, 4Pal, αMeL, Orn, Me4Pal, αMeY; γGlu-C18 diacid Lys; C-term amide; synthetic construct; SITE 2: note = 2-Aminoisobutyric Acid; SITE 10: note = 3-(4-Pyridyl)-L-alanine; SITE 13: note = alpha-methyl-leucine; SITE 16: note = L-ornithine; SITE 17: note = Lysine is chemically modified through conjugation of the epsilon-amino group of the Lysine side chain with D-Glutami
Take B9: the results for the Relative cAMP EC50 (in experiment [1]; in experiment [2]; with hGLP-1R) were 0.0478 nM, 11.5 nM and 0.84 nM, respectively.

B10: Example 1127 (peptide)
chain: YXQGTFTSDXSQXLDKKAQXAFIEYLIEXGPSSGAPPPSGTGE
modifications: Aib, 4Pal, Me4Pal, alpha-methyl-Leu, lipidated Lys, C-terminal amide; synthetic construct; SITE 2: note = 2-Aminoisobutyric Acid; SITE 10: note = 3-(4-Pyridyl)-L-alanine; SITE 13: note = alpha-methyl-leucine; SITE 17: note = Lysine is chemically modified through conjugation of the epsilon-amino group of the Lysine side chain with (gamma-Glu)2-CO-(CH2)16-CO2H; SITE 20:
Take B10: the Relative cAMP EC50 in experiment [1] came out at 0.167 nM; in experiment [2] it was 5.95 nM; in the experiment with hGLP-1R, 6.16 nM.

In the case of Y[Aib]QGTFTSD[4Pal]S[Dab][αMeL]LDKK([AEEA-γGlu-C18 diacid])AQ[Aib]AFIEYLIE[Aib]GPSSGAPPPSGS-NH2 [Example 803], the Relative cAMP EC50 in experiment [1] turned out to be 0.232 nM; in experiment [2], 9.75 nM; with hGLP-1R it was 2.02 nM.

B11: Example 1132 (peptide)
chain: YXQGTFTSDXXQXLDXKAQXQFIQXLIAXGPSSGAPPPSGGGE
modifications: not fully specified; Lys acylated γGlu-C18 diacid; non-natural residues; C-amide; synthetic construct; SITE 2: note = 2-Aminoisobutyric Acid; SITE 10: note = 3-(4-Pyridyl)-L-alanine; SITE 11: note = alpha-methyl-L-serine; SITE 13: note = alpha-methyl-leucine; SITE 16: note = L-ornithine; SITE 17: note = Lysine is chemically modified through conjugation of the epsilon-amino group
B11: the values for the Relative cAMP EC50 (in experiment [1]; in experiment [2]; in the experiment with hGLP-1R) were 0.0335 nM, 2.11 nM and 0.681 nM, respectively.

B12: Example 1116 (peptide)
chain: YXQGTFTSDXSQXLDKKAQXAFIEXLIEXGPSSGAPPPSGTE
modifications: acylated Lys AEEA-γGlu-C18 diacid; non-natural residues; C-terminal amide; synthetic construct; SITE 2: note = 2-Aminoisobutyric Acid; SITE 10: note = 3-(4-Pyridyl)-L-alanine; SITE 13: note = alpha-methyl-leucine; SITE 17: note = Lysine is chemically modified through conjugation of the epsilon-amino group of the Lysine side chain with (2-[2-(2-Amino-ethoxy)-ethoxy]-acetyl)
With B12, the Relative cAMP EC50 in experiment [1] was determined as 0.134 nM; in experiment [2] it was 8.2 nM; with hGLP-1R it was 4.63 nM.

B13: Example 1118 (peptide)
chain: YXQGTFTSDXSQXLDKKAQXAFIEXLIEXGPSSGAPPPSGTE
modifications: Lys acylated with (γGlu)2-C18 diacid; non-natural residues; C-amide; synthetic construct; SITE 2: note = 2-Aminoisobutyric Acid; SITE 10: note = 3-(4-Pyridyl)-L-alanine; SITE 13: note = alpha-methyl-leucine; SITE 17: note = Lysine is chemically modified through conjugation of the epsilon-amino group of the Lysine side chain with (gamma-Glu)2-CO-(CH2)16-CO2H; SITE 20:
For B13, the Relative cAMP EC50 in experiment [1] was found to be 0.128 nM; in experiment [2], 6.52 nM; with hGLP-1R it was 5.42 nM.

B14: Example 1121 (peptide)
chain: YXQGTFTSDXSQXLDKKAQXAFIEXLIEXGPSSGAPPPSGEE
modifications: Aib, 4Pal, αMeL, Me4Pal, acylated K, C-terminal amide; synthetic construct; SITE 2: note = 2-Aminoisobutyric Acid; SITE 10: note = 3-(4-Pyridyl)-L-alanine; SITE 13: note = alpha-methyl-leucine; SITE 17: note = Lysine is chemically modified through conjugation of the epsilon-amino group of the Lysine side chain with (gamma-Glu)2-CO-(CH2)16-CO2H; SITE 20:
As to B14, the figures for the Relative cAMP EC50 (in experiment [1]; in experiment [2]; with hGLP-1R) were 0.115 nM, 8.83 nM and 5.23 nM, respectively.

B15: Example 1126 (peptide)
chain: YXQGTFTSDXSQXLDKKAQXAFIEYLIEXGPSSGAPPPSGTE
modifications: non-natural residues; (γGlu)2-C18 diacid on Lys; C-terminal amide; synthetic construct; SITE 2: note = 2-Aminoisobutyric Acid; SITE 10: note = 3-(4-Pyridyl)-L-alanine; SITE 13: note = alpha-methyl-leucine; SITE 17: note = Lysine is chemically modified through conjugation of the epsilon-amino group of the Lysine side chain with (gamma-Glu)2-CO-(CH2)16-CO2H; SITE 20:
As for B15, the Relative cAMP EC50 worked out at 0.174 nM in experiment [1], 3.92 nM in experiment [2] and 4.56 nM with hGLP-1R.
